Reference: US20160272683A1 (Novo Nordisk, published 2016)
Numbered stars: 1 amine (or outer) side, 2 acyl side, 3 side chain; on linkers, the order of the positions; unused ones are H or OH. * marks the point of attachment. C20 diacid = O=C(O)CCCCCCCCCCCCCCCCCCC(=O)*; γGlu = O=C(O)[C@H](CCC(=O)[*:2])N[*:1]

T1: human calcitonin receptor (human, UniProt P30988 25-474)
T1 construct: whole, on cells; also called hCT-R; hCTR
T1 sequence (looked up): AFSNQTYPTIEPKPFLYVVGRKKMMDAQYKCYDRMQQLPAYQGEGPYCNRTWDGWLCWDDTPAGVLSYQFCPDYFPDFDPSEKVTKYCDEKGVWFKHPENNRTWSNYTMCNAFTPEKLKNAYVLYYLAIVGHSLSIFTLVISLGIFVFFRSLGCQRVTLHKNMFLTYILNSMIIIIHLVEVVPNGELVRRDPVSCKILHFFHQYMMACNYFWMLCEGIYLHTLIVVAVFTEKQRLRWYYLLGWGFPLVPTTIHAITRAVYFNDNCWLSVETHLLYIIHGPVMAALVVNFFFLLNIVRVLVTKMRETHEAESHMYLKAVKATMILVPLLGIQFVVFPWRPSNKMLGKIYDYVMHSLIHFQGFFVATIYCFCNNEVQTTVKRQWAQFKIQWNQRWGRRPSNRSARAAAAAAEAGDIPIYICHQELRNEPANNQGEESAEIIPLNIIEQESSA


These binders were tested against T1, human calcitonin receptor (assay: whole-cell competition vs 125I-human calcitonin (Assay VIIa)).
Outline: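 BHK tk'ts 13 cells stably co-expressing human calcitonin receptor and a CRE-luciferase reporter, seeded overnight at 37 °C. Bound tracer counted by scintillation after cold HBSS washes and NaOH/SDS lysis; IC₅₀ from one-site competition fit taken as receptor affinity.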

Binder | IC50 [nM]
{C20 diacid-γGlu}-ASELSTAALGRLSAELHELATYPRTETGSGSP-NH2 (SMILES CC(C)C[C@H](NC(=O)[C@H](C)NC(=O)[C@H](C)NC(=O)[C@@H](NC(=O)[C@H](CO)NC(=O)[C@H](CC(C)C)NC(=O)[C@H](CCC(=O)O)NC(=O)[C@H](CO)NC(=O)[C@H](C)NC(=O)CC[C@H](NC(=O)CCCCCCCCCCCCCCCCCCC(=O)O)C(=O)O)[C@@H](C)O)C(=O)NCC(=O)N[C@@H](CCCNC(=N)N)C(=O)N[C@@H](CC(C)C)C(=O)N[C@@H](CO)C(=O)N[C@@H](C)C(=O)N[C@@H](CCC(=O)O)C(=O)N[C@@H](CC(C)C)C(=O)N[C@@H](Cc1c[nH]cn1)C(=O)N[C@@H](CCC(=O)O)C(=O)N[C@@H](CC(C)C)C(=O)N[C@@H](C)C(=O)N[C@H](C(=O)N[C@@H](Cc1ccc(O)cc1)C(=O)N1CCC[C@H]1C(=O)N[C@@H](CCCNC(=N)N)C(=O)N[C@H](C(=O)N[C@@H](CCC(=O)O)C(=O)N[C@H](C(=O)NCC(=O)N[C@@H](CO)C(=O)NCC(=O)N[C@@H](CO)C(=O)N1CCC[C@H]1C(N)=O)[C@@H](C)O)[C@@H](C)O)[C@@H](C)O, also called Ex. #56) [[N-terminal(C20 diacid-gGlu), des1, 23Y, 30S, 31G]mimylin] | 2.94
{C20 diacid-γGlu}-ASELSTAALGRLSAELHELATLPRTETGSGSA-NH2 (SMILES CC(C)C[C@H](NC(=O)[C@H](C)NC(=O)[C@H](C)NC(=O)[C@@H](NC(=O)[C@H](CO)NC(=O)[C@H](CC(C)C)NC(=O)[C@H](CCC(=O)O)NC(=O)[C@H](CO)NC(=O)[C@H](C)NC(=O)CC[C@H](NC(=O)CCCCCCCCCCCCCCCCCCC(=O)O)C(=O)O)[C@@H](C)O)C(=O)NCC(=O)N[C@@H](CCCNC(=N)N)C(=O)N[C@@H](CC(C)C)C(=O)N[C@@H](CO)C(=O)N[C@@H](C)C(=O)N[C@@H](CCC(=O)O)C(=O)N[C@@H](CC(C)C)C(=O)N[C@@H](Cc1c[nH]cn1)C(=O)N[C@@H](CCC(=O)O)C(=O)N[C@@H](CC(C)C)C(=O)N[C@@H](C)C(=O)N[C@H](C(=O)N[C@@H](CC(C)C)C(=O)N1CCC[C@H]1C(=O)N[C@@H](CCCNC(=N)N)C(=O)N[C@H](C(=O)N[C@@H](CCC(=O)O)C(=O)N[C@H](C(=O)NCC(=O)N[C@@H](CO)C(=O)NCC(=O)N[C@@H](CO)C(=O)N[C@@H](C)C(N)=O)[C@@H](C)O)[C@@H](C)O)[C@@H](C)O, also called Ex. #65) [[N-terminal(C20 diacid-gGlu), des1, 30S, 31G, 33A]mimylin] | 1.25
{C20 diacid-γGlu}-ASELSTAALGRLSAELHELATLPRTETGSGSH-NH2 (SMILES CC(C)C[C@H](NC(=O)[C@H](C)NC(=O)[C@H](C)NC(=O)[C@@H](NC(=O)[C@H](CO)NC(=O)[C@H](CC(C)C)NC(=O)[C@H](CCC(=O)O)NC(=O)[C@H](CO)NC(=O)[C@H](C)NC(=O)CC[C@H](NC(=O)CCCCCCCCCCCCCCCCCCC(=O)O)C(=O)O)[C@@H](C)O)C(=O)NCC(=O)N[C@@H](CCCNC(=N)N)C(=O)N[C@@H](CC(C)C)C(=O)N[C@@H](CO)C(=O)N[C@@H](C)C(=O)N[C@@H](CCC(=O)O)C(=O)N[C@@H](CC(C)C)C(=O)N[C@@H](Cc1c[nH]cn1)C(=O)N[C@@H](CCC(=O)O)C(=O)N[C@@H](CC(C)C)C(=O)N[C@@H](C)C(=O)N[C@H](C(=O)N[C@@H](CC(C)C)C(=O)N1CCC[C@H]1C(=O)N[C@@H](CCCNC(=N)N)C(=O)N[C@H](C(=O)N[C@@H](CCC(=O)O)C(=O)N[C@H](C(=O)NCC(=O)N[C@@H](CO)C(=O)NCC(=O)N[C@@H](CO)C(=O)N[C@@H](Cc1c[nH]cn1)C(N)=O)[C@@H](C)O)[C@@H](C)O)[C@@H](C)O, also called Ex. #60) [[N-terminal(C20 diacid-gGlu), des1, 30S, 31G, 33H]mimylin] | 1.53
{C20 diacid-γGlu}-ASELSTAALGRLSAELHELATLPRTETGSGSG-NH2 (SMILES CC(C)C[C@H](NC(=O)[C@H](C)NC(=O)[C@H](C)NC(=O)[C@@H](NC(=O)[C@H](CO)NC(=O)[C@H](CC(C)C)NC(=O)[C@H](CCC(=O)O)NC(=O)[C@H](CO)NC(=O)[C@H](C)NC(=O)CC[C@H](NC(=O)CCCCCCCCCCCCCCCCCCC(=O)O)C(=O)O)[C@@H](C)O)C(=O)NCC(=O)N[C@@H](CCCNC(=N)N)C(=O)N[C@@H](CC(C)C)C(=O)N[C@@H](CO)C(=O)N[C@@H](C)C(=O)N[C@@H](CCC(=O)O)C(=O)N[C@@H](CC(C)C)C(=O)N[C@@H](Cc1c[nH]cn1)C(=O)N[C@@H](CCC(=O)O)C(=O)N[C@@H](CC(C)C)C(=O)N[C@@H](C)C(=O)N[C@H](C(=O)N[C@@H](CC(C)C)C(=O)N1CCC[C@H]1C(=O)N[C@@H](CCCNC(=N)N)C(=O)N[C@H](C(=O)N[C@@H](CCC(=O)O)C(=O)N[C@H](C(=O)NCC(=O)N[C@@H](CO)C(=O)NCC(=O)N[C@@H](CO)C(=O)NCC(N)=O)[C@@H](C)O)[C@@H](C)O)[C@@H](C)O, also called Ex. #64) [[N-terminal(C20 diacid-gGlu), des1, 30S, 31G, 33G]mimylin] | 3.63
{C20 diacid-γGlu}-ASELSTAALGRLSAELHELATLPRTETGSGSF-NH2 (SMILES CC(C)C[C@H](NC(=O)[C@H](C)NC(=O)[C@H](C)NC(=O)[C@@H](NC(=O)[C@H](CO)NC(=O)[C@H](CC(C)C)NC(=O)[C@H](CCC(=O)O)NC(=O)[C@H](CO)NC(=O)[C@H](C)NC(=O)CC[C@H](NC(=O)CCCCCCCCCCCCCCCCCCC(=O)O)C(=O)O)[C@@H](C)O)C(=O)NCC(=O)N[C@@H](CCCNC(=N)N)C(=O)N[C@@H](CC(C)C)C(=O)N[C@@H](CO)C(=O)N[C@@H](C)C(=O)N[C@@H](CCC(=O)O)C(=O)N[C@@H](CC(C)C)C(=O)N[C@@H](Cc1c[nH]cn1)C(=O)N[C@@H](CCC(=O)O)C(=O)N[C@@H](CC(C)C)C(=O)N[C@@H](C)C(=O)N[C@H](C(=O)N[C@@H](CC(C)C)C(=O)N1CCC[C@H]1C(=O)N[C@@H](CCCNC(=N)N)C(=O)N[C@H](C(=O)N[C@@H](CCC(=O)O)C(=O)N[C@H](C(=O)NCC(=O)N[C@@H](CO)C(=O)NCC(=O)N[C@@H](CO)C(=O)N[C@@H](Cc1ccccc1)C(N)=O)[C@@H](C)O)[C@@H](C)O)[C@@H](C)O, also called Ex. #61) [[N-terminal(C20 diacid-gGlu), des1, 30S, 31G, 33F]mimylin] | 1.76
{C20 diacid-γGlu}-ASELSTAALGRLSAELHELATLPHTETGSGSP-NH2 (SMILES CC(C)C[C@H](NC(=O)[C@H](C)NC(=O)[C@H](C)NC(=O)[C@@H](NC(=O)[C@H](CO)NC(=O)[C@H](CC(C)C)NC(=O)[C@H](CCC(=O)O)NC(=O)[C@H](CO)NC(=O)[C@H](C)NC(=O)CC[C@H](NC(=O)CCCCCCCCCCCCCCCCCCC(=O)O)C(=O)O)[C@@H](C)O)C(=O)NCC(=O)N[C@@H](CCCNC(=N)N)C(=O)N[C@@H](CC(C)C)C(=O)N[C@@H](CO)C(=O)N[C@@H](C)C(=O)N[C@@H](CCC(=O)O)C(=O)N[C@@H](CC(C)C)C(=O)N[C@@H](Cc1c[nH]cn1)C(=O)N[C@@H](CCC(=O)O)C(=O)N[C@@H](CC(C)C)C(=O)N[C@@H](C)C(=O)N[C@H](C(=O)N[C@@H](CC(C)C)C(=O)N1CCC[C@H]1C(=O)N[C@@H](Cc1c[nH]cn1)C(=O)N[C@H](C(=O)N[C@@H](CCC(=O)O)C(=O)N[C@H](C(=O)NCC(=O)N[C@@H](CO)C(=O)NCC(=O)N[C@@H](CO)C(=O)N1CCC[C@H]1C(N)=O)[C@@H](C)O)[C@@H](C)O)[C@@H](C)O, also called Ex. #73) [[N-terminal(C20 diacid-gGlu), des1, 25H, 30S, 31G]mimylin] | 0.442
